# B1: CBMX: Carbohydrate-binding module of Pseudoplectania nigrella GH61 enzyme (positions 34-174 of SEQ ID NO:2), expressed in Aspergillus oryzae, purified on Avicel (protein, listed as Pseudoplectania nigrella)
# chain: SSGTSNDKAVASSSIAAVDPVTSSVVASVQVPNFTATDVPTFTATDIPTFTATDVPIFTKKPQQPSTLLTRTRTHASVSFVAKPSAFIPKPSASTIPSKPKTPEEVNKCLDAVNACITQAQSSIGGVVNFEPCESQRALCY
# Experiments:
# [1] = Binding of CBMX to Avicel (A280 of supernatant); conditions: for A280: Absorbance at 280 nm of 200 μl supernatant, absorbance of buffer and Avicel subtracted: 4 hours, room temperature, 20 mM Tris pH 7.5
# Method: The carbohydrate-binding domain with affinity for Avicel® and purified as described in Example 2 (CBMX) was studied further. 50 μl purified CBMX was mixed with 500 μl 20 mM Tris, pH 7.5 containing varying amount of Avicel® (0-100 mg/ml) in an Eppendorf tube. After 4 hours incubation at room temperature with agitation, the samples were centrifuged. 200 μl supernatant was transferred to the well of a microtiter plate (Costar, UV plate) and absorbance read at 280 nm on a microtiter plate reader (SpectraMax® Plus, Molecular Devices).
# [2] = Binding of CBMX to PASC (A280 of supernatant); conditions: 4 hours, room temperature; for A280: Absorbance at 280 nm of 200 μl supernatant, absorbance of buffer subtracted: 20 mM Tris pH 7.5
# Method: A similar binding study was performed with PASO (Phosphoric Acid Swollen Cellulose: To 5 g Avicel® moistened with water 150 ml ice-cold 85 ortho-phosphoric acid is added. After 1 hour stirring on ice bath, 500 ml cold acetone is added. The suspension is filtered and washed, first with acetone and then with water). 50 μl purified CBMX was mixed with 500 μl 20 mM Tris, pH 7.5 containing varying amount of PASO (0-10 mg/ml) in an Eppendorf tube. Samples were incubated 4 hours at room temperature with agitation. After centrifugation, 200 μl supernatant was transferred to the well of a microtiter plate and absorbance read at 280 nm.
# [3] = Competition binding assay with CBMX and Avicel, references without soluble carbohydrate; conditions: 4 hours
# Method: (§1) Affinity of CBMX for a number of soluble carbohydrates was tested in a competition assay by mixing 100 μl CBMX with both Avicel® (400 μl 50 mg/ml in 20 mM Tris, pH 7.5) and the soluble carbohydrate (dissolved in 500 μl 20 mM Tris, pH 7.5). As references, samples without CBMX or soluble carbohydrate added were used. If CBMX has affinity for the soluble carbohydrate it should be able to keep CBMX in solution which can be measured as increase in absorbance at 280 nm compared to sample without soluble carbohydrate added. After 4 hours incubation at room temperature with agitation, samples were centrifuged and absorbance at 280 nm was read using 200 μl supernatant in the well of a microtiter UV plate. Tested soluble carbohydrates were barley β-glucan (Megazyme, low viscosity), lichenan (Megazyme, Icelandic moss), CMC (carboxymethyl cellulose 7LF, Hercules, USA), Xyloglucan (Megazyme, amyloid, from tamarind seed), lupin galactan (Megazyme) and Locust bean gum (Sigma, G-0753).
# [4] = Competition binding assay with CBMX, Avicel and soluble carbohydrate; design: species or system barley; conditions: beta-glucan
# Method: as §1
# [5] = as above; design: species or system Icelandic moss; conditions: lichenan
# Method: as §1
# [6] = as above; design: species or system tamarind; conditions: xyloglucan
# Method: as §1
# [7] = as above; design: species or system lupin; conditions: galactan
# Method: as §1
# [8] = as above; conditions: for CBMX kept in solution by soluble carbohydrate (in words): competition with Avicel
# Method: as §1
molecule,measurement,setting,value
B1,"A280: Absorbance at 280 nm of 200 μl supernatant, absorbance of buffer and Avicel subtracted",[1]; Avicel 0.0 mg/ml,0.0768
same,"A280: Absorbance at 280 nm of 200 μl supernatant, absorbance of buffer and Avicel subtracted",[1]; Avicel 0.391 mg/ml,0.0777
same,"A280: Absorbance at 280 nm of 200 μl supernatant, absorbance of buffer and Avicel subtracted",[1]; Avicel 0.781 mg/ml,0.0808
same,"A280: Absorbance at 280 nm of 200 μl supernatant, absorbance of buffer and Avicel subtracted",[1]; Avicel 1.563 mg/ml,0.0799
same,"A280: Absorbance at 280 nm of 200 μl supernatant, absorbance of buffer and Avicel subtracted",[1]; Avicel 3.125 mg/ml,0.0729
same,"A280: Absorbance at 280 nm of 200 μl supernatant, absorbance of buffer and Avicel subtracted",[1]; Avicel 6.25 mg/ml,0.0637
same,"A280: Absorbance at 280 nm of 200 μl supernatant, absorbance of buffer and Avicel subtracted",[1]; Avicel 12.5 mg/ml,0.0540
same,"A280: Absorbance at 280 nm of 200 μl supernatant, absorbance of buffer and Avicel subtracted",[1]; Avicel 25 mg/ml,0.0326
same,"A280: Absorbance at 280 nm of 200 μl supernatant, absorbance of buffer and Avicel subtracted",[1]; Avicel 50 mg/ml,0.0185
same,"A280: Absorbance at 280 nm of 200 μl supernatant, absorbance of buffer and Avicel subtracted",[1]; Avicel 100 mg/ml,0.0095
same,Binding of the protein to Avicel (in words),"[1]; highest concentrations of Avicel, 4 hours incubation",the large majority of the protein binds
same,Affinity for Avicel (in words),[1]; summary statement,have affinity for Avicel®
same,Affinity for PASC (in words),[2]; 0-10 mg/ml,has affinity for PASO
same,"A280: Absorbance at 280 nm of 200 μl supernatant, absorbance of buffer subtracted",[2]; PASC 0.0 mg/ml,0.0753
same,"A280: Absorbance at 280 nm of 200 μl supernatant, absorbance of buffer subtracted",[2]; PASC 0.625 mg/ml,0.0682
same,"A280: Absorbance at 280 nm of 200 μl supernatant, absorbance of buffer subtracted",[2]; PASC 1.25 mg/ml,0.0710
same,"A280: Absorbance at 280 nm of 200 μl supernatant, absorbance of buffer subtracted",[2]; PASC 2.5 mg/ml,0.0618
same,"A280: Absorbance at 280 nm of 200 μl supernatant, absorbance of buffer subtracted",[2]; PASC 5 mg/ml,0.0512
same,"A280: Absorbance at 280 nm of 200 μl supernatant, absorbance of buffer subtracted",[2]; PASC 10 mg/ml,0.0471
same,Difference in A280 between samples with and without CBMX added,"[3]; None - Only Avicel (20 mg/ml) and CBMX, no soluble carbohydrate",0.018
same,Difference in A280 between samples with and without CBMX added,"[3]; None - Only CBMX (no Avicel, no soluble carbohydrate)",0.108
same,Affinity of CBMX for soluble carbohydrate (in words),[4],affinity
same,CBMX kept in solution by soluble carbohydrate (in words),[4]; competition with Avicel,keep almost all CBMX in solution
same,Affinity of CBMX for soluble carbohydrate (in words),[5],no affinity for lichenan could be detected
same,CBMX kept in solution by soluble carbohydrate (in words),[5]; competition with Avicel,does not result in any increase in CBMX in solution
same,Affinity of CBMX for soluble carbohydrate (in words),[6],to some extent
same,CBMX kept in solution by soluble carbohydrate (in words),[6]; competition with Avicel,about half of the CBMX in solution
same,Affinity of CBMX for soluble carbohydrate (in words),[7],to some extent
same,CBMX kept in solution by soluble carbohydrate (in words),[7]; competition with Avicel,about half of the CBMX in solution
same,Affinity of CBMX for soluble carbohydrate (in words),[8]; CMC,affinity
same,CBMX kept in solution by soluble carbohydrate (in words),[8]; CMC,keep almost all CBMX in solution
same,Affinity of CBMX for soluble carbohydrate (in words),[8]; locust bean gum,affinity
same,CBMX kept in solution by soluble carbohydrate (in words),[8]; locust bean gum,keeps the majority in solution

# Reference: patent US8846340B2, “Carbohydrate-binding modules of a new family” (Novozymes A/S, priority 2003, dated 2014)
